From article PMC2133975

Legend:
[1] = target: axonin-1, recombinant, expressed on the surface of COS-7 cells (chicken) (UniProt P28685); experiment: binding of protein-conjugated fluorescent microspheres
[2] = target: NgCAM, recombinant, expressed on the surface of COS-7 cells (chicken); experiment: as above

Molecule	percent of expressing cells that bound Covaspheres [1]	percent of expressing cells that bound Covaspheres [2]
NgCAM purified from chicken brain membranes, conjugated to Covaspheres (from UniProt Q03696 21-1266) (natural protein)	15%	61%
axonin-1 purified from the ocular vitreous fluid of chicken embryos, conjugated to Covaspheres (natural protein) QSGMRSYGPVFEEQPAHTLFPEGSAEEKVTLTCRARANPPATYRWKMNGTELKMGPDSRYRLVAGDLVISNPVKAKDAGSYQCVATNARGTVVSREASLRFGFLQEFSAEERDPVKITEGWGVMFTCSPPPHYPALSYRWLLNEFPNFIPADGRRFVSQTTGNLYIAKTEASDLGNYSCFATSHIDFITKSVFSKFSQLSLAAEDARQYAPSIKAKFPADTYALTGQMVTLECFAFGNPVPQIKWRKLDGSQTSKWLSSEPLLHIQNVDFEDEGTYECEAENIKGRDTYQGRIIIHAQPDWLDVITDTEADIGSDLRWSCVASGKPRPAVRWLRDGQPLASQNRIEVSGGELRFSKLVLEDSGMYQCVAENKHGTVYASAELTVQALAPDFRLNPVKRLIPAARSGKVIIPCQPRAAPKATVLWTKGTELLTNSSRVTITADGTLILQNISKSDEGKYTCFAENFMGKANSTGILSVRDATKITLAPSSADINVGENLTLQCHASHDPTMDLTFTWSLDDFPIDLDKSEGHYRRASVKEAVGDLAIVNAQLKHSGRYTCTAQTVVDSTSESATLTVRGPPGPPGGVVVRDIGDTTVQLSWSRGFDNHSPIARYSIEARTLLSNKWKQMRTNPVNIEGNAETAQVVNLIPWMDYEFRVLASNILGVGEPSLPSSKIRTKEAAPTVAPSGLGGGGGAPNELIINWTPTLRDYQNGDGFGYILSFRKKGTQGWLTARVPHAESLHYVYRNESIGPYTPFEVKIKAYNRKGEGPESLTAIVYSAEEEPKVAPFRVTAKAVLSSEMDVSWEPVEQGDMTGVLLGYEIRYWKDGDKEEAADRVRTAGLVTSAHVTGLNPNTKYHVSVRAYNRAGAGPPSPSTNITTTKPPPRRPPGNISWTLTGSTVTIKWDPVVAQADESAVTGYKMLYRQDSHSAPTLYLASKSRIDIPVPEDFTHAFVQIRVTGPGGDGTPAEVHIVRNSGTSMMVEDSVTRPVPHAAIITTNSLAMVALIRYLEL	–	53%
